According to patent publication US8853149:

Target: integrins
Experiment: cell-based or functional assay

B1: cyclic III peptide 3 (KLKLK-T1-MVVSA-T1) (peptide)
peptide: KLKLKMVVSA
modifications: here or on the partner: head-to-tail cyclic; two T1 linkers (NH2CH2CH2N(SO2Me)CH2COOH) join the strands
IC50 (µM), bioactivity of cyclic III peptide analogs: 57 µM

B2: cyclic III peptide 7 (KLKLK-T1-AVVSW-T1) (peptide)
peptide: KLKLKAVVSW
modifications: here or on the partner: head-to-tail cyclic; two T1 linkers (NH2CH2CH2N(SO2Me)CH2COOH) join the strands
IC50 (µM), bioactivity of cyclic III peptide analogs: 31 µM

B3: cyclic III peptide 4 (KLKLK-T1-MVVAW-T1) (peptide)
peptide: KLKLKMVVAW
modifications: here or on the partner: head-to-tail cyclic; two T1 linkers (NH2CH2CH2N(SO2Me)CH2COOH) join the strands
IC50 (µM), bioactivity of cyclic III peptide analogs: 4 µM

B4: cyclic III peptide 5 (KLKLK-T1-MVASW-T1) (peptide)
peptide: KLKLKMVASW
modifications: here or on the partner: head-to-tail cyclic; two T1 linkers (NH2CH2CH2N(SO2Me)CH2COOH) join the strands
IC50 (µM), bioactivity of cyclic III peptide analogs: 19 µM

B5: cyclic III peptide 6 (KLKLK-T1-MAVSW-T1) (peptide)
peptide: KLKLKMAVSW
modifications: here or on the partner: head-to-tail cyclic; two T1 linkers (NH2CH2CH2N(SO2Me)CH2COOH) join the strands
IC50 (µM), bioactivity of cyclic III peptide analogs: 6 µM
